Data: publication PMC3021122

Biological target: Shigella flexneri Spa15 (residues 1-133), N-terminal His tag, unlabelled (Shigella flexneri) (UniProt P35530)
Experiment: multi-angle laser light scattering; co-purified Spa15:IpgB1 complex; data not shown

Substance: Shigella flexneri IpgB1 (residues 1-208) (natural protein)
- stoichiometry N (Spa15 per IpgB1): 2
